Test results from patent US20170322217A1.

Target: Rad50 (Homo sapiens (Human)) (UniProt Q92878)
Experiment: SILAC LC-MS/MS of anti-Flag immunoprecipitate, heavy (EVI1-Flag) over light (Flag control)

Chain of UniProt Q92878 (Q92878 whole entry): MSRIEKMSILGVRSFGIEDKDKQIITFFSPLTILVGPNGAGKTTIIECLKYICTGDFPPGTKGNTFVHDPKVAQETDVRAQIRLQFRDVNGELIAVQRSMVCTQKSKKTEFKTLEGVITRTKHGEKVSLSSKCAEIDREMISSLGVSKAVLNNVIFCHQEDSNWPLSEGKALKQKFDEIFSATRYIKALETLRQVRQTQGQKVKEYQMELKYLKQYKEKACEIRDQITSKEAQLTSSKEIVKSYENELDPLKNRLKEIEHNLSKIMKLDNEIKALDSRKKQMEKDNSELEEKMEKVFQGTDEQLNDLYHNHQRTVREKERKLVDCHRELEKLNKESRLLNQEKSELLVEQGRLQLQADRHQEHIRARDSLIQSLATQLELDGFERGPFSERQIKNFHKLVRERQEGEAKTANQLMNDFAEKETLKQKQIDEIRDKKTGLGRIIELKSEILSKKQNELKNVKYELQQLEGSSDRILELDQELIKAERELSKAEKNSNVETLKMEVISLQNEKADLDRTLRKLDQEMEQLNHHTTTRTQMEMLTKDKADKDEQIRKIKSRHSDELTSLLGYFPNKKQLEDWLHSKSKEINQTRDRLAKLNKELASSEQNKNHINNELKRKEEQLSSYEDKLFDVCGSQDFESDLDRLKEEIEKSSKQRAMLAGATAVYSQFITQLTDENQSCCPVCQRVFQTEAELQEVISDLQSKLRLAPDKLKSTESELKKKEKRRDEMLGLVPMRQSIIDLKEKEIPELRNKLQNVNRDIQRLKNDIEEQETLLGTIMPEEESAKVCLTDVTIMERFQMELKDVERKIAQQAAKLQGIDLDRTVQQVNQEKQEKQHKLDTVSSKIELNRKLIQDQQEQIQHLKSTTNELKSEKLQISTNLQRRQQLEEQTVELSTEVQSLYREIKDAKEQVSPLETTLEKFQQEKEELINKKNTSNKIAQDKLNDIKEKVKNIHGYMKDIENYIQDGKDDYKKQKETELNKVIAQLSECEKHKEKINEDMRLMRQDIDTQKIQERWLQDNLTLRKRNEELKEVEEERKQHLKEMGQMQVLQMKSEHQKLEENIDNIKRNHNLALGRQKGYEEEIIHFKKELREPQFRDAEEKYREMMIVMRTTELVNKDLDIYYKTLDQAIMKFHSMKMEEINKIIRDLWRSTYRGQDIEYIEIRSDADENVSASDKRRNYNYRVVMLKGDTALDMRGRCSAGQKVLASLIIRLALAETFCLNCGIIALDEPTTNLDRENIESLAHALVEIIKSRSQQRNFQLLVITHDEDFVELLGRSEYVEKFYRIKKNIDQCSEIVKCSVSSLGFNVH

- Evi1 enrichment (H/L ratio): 7.11 to 47.8 H/L ratio
Substance: EVI1-Flag construct (Evi1 protein with Flag tag, expressed in SKOV3 cells) (from UniProt Q03112 1-1051)
